The text below walks through data of article PMC2873289, “A Helix Replacement Mechanism Directs Metavinculin Functions” (PLoS ONE, 2010).

Data set [1] deals with the molecule itself. In words: SEC; Hiload 26/60 Superdex 200 calibrated with molecular weight markers; without PIP2.
Data set [2] addresses T1, head domain of vinculin (VH; residues 1–843) (human, UniProt P18206 1-843).
T1 construct: human vinculin head domain, residues 1-843 (the same in vinculin and metavinculin)
T1 sequence (looked up): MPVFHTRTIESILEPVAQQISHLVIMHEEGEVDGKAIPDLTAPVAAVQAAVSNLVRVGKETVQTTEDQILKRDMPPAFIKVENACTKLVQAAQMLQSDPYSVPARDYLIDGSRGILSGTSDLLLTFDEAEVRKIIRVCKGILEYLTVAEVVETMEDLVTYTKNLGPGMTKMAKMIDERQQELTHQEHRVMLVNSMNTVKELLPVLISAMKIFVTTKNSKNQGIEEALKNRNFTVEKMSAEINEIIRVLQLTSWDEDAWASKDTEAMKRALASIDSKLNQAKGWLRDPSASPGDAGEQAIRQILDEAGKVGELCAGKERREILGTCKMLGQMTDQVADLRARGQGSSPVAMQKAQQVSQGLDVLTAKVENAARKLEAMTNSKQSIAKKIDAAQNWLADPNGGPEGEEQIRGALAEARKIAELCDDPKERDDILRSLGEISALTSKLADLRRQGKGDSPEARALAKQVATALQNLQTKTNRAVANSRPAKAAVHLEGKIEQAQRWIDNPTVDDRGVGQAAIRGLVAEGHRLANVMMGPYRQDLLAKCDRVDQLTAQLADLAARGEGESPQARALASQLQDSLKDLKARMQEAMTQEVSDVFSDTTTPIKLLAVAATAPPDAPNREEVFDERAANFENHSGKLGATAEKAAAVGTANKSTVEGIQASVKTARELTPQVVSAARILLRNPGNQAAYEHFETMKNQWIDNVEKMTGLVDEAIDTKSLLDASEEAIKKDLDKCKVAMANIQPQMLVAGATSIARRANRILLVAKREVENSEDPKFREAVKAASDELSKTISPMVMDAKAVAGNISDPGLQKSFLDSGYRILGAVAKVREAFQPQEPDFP
Description: native gel or EMSA; reciprocal tail displacement: competing tail domains titrated into preformed VH:tail complexes at 2- and 10-fold molar excess; details in Methods S1. The conditions noted are these: both partners purified.

Data set [3] deals with T2, GST tagged vinculin tail domain (GST-Vt; residues 879–1,066) (human, UniProt P18206-2 879-1066).
T2 construct: human vinculin tail domain, residues 879-1,066 of vinculin (1,066-residue isoform), cloned in pGEX-4T-1; source: E. coli BL21-DE3, purified (GSTrap FF, Superdex 75)
T2 sequence (looked up): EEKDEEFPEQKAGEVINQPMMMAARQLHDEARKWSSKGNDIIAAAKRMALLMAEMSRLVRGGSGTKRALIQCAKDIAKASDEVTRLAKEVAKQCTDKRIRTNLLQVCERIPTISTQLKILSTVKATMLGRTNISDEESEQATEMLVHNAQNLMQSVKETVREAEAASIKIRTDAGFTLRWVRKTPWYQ
In words: pull-down; GST-Vt on GST-Sepharose beads, with or without PIP2; tail domains (MVt, MVt-ΔH1) or Vh2–Vh3 as negative control; SDS-PAGE and Western blot with HRP-conjugated αHis or αGST antibodies. The conditions noted are these: both partners purified. On the technique in general: Immunoblotting shows a protein as a band on a membrane.

B1: metavinculin-ΔH1ΔH1′ (lacking residues 895–915 and 963–983) (natural protein, human, UniProt P18206 1-1134, looked up)
chain: MPVFHTRTIESILEPVAQQISHLVIMHEEGEVDGKAIPDLTAPVAAVQAAVSNLVRVGKETVQTTEDQILKRDMPPAFIKVENACTKLVQAAQMLQSDPYSVPARDYLIDGSRGILSGTSDLLLTFDEAEVRKIIRVCKGILEYLTVAEVVETMEDLVTYTKNLGPGMTKMAKMIDERQQELTHQEHRVMLVNSMNTVKELLPVLISAMKIFVTTKNSKNQGIEEALKNRNFTVEKMSAEINEIIRVLQLTSWDEDAWASKDTEAMKRALASIDSKLNQAKGWLRDPSASPGDAGEQAIRQILDEAGKVGELCAGKERREILGTCKMLGQMTDQVADLRARGQGSSPVAMQKAQQVSQGLDVLTAKVENAARKLEAMTNSKQSIAKKIDAAQNWLADPNGGPEGEEQIRGALAEARKIAELCDDPKERDDILRSLGEISALTSKLADLRRQGKGDSPEARALAKQVATALQNLQTKTNRAVANSRPAKAAVHLEGKIEQAQRWIDNPTVDDRGVGQAAIRGLVAEGHRLANVMMGPYRQDLLAKCDRVDQLTAQLADLAARGEGESPQARALASQLQDSLKDLKARMQEAMTQEVSDVFSDTTTPIKLLAVAATAPPDAPNREEVFDERAANFENHSGKLGATAEKAAAVGTANKSTVEGIQASVKTARELTPQVVSAARILLRNPGNQAAYEHFETMKNQWIDNVEKMTGLVDEAIDTKSLLDASEEAIKKDLDKCKVAMANIQPQMLVAGATSIARRANRILLVAKREVENSEDPKFREAVKAASDELSKTISPMVMDAKAVAGNISDPGLQKSFLDSGYRILGAVAKVREAFQPQEPDFPPPPPDLEQLRLTDELAPPKPPLPEGEVPPPRPPPPEEKDEEFPEQKAGEVIPGIPAAEVGIGVVAEADAADAAGFPVPPDMEDDYEPELLLMPSNQPVGNDIIAAAKRMALLMAEMSRLVRGGSGTKRALIQCAKDIAKASDEVTRLAKEVAKQCTDKRIRTNLLQVCERIPTISTQLKILSTVKATMLGRTNISDEESEQATEMLVHNAQNLMQSVKETVREAEAASIKIRTDAGFTLRWVRKTPWYQ
notes: human metavinculin, full length (1-1,134) lacking residues 895-915 (H1) and 963-983 (H1′); source: E. coli BL21-DE3, purified (as full-length metavinculin); not shown: His8, N-terminal, kept
In general, stoichiometry N refers to the number of molecules, sites or subunits per partner or assembly. B1: the “stoichiometry N” value in data set [1] worked out at 2.

B2: metavinculin tail domain (MVt; residues 879–1,134) (domain or fragment, human, UniProt P18206 879-1134, looked up)
chain: EEKDEEFPEQKAGEVINQPMMMAARQLHDEARKWSSKPGIPAAEVGIGVVAEADAADAAGFPVPPDMEDDYEPELLLMPSNQPVNQPILAAAQSLHREATKWSSKGNDIIAAAKRMALLMAEMSRLVRGGSGTKRALIQCAKDIAKASDEVTRLAKEVAKQCTDKRIRTNLLQVCERIPTISTQLKILSTVKATMLGRTNISDEESEQATEMLVHNAQNLMQSVKETVREAEAASIKIRTDAGFTLRWVRKTPWYQ
notes: human metavinculin (1,134 residues) tail domain, residues 879-1,134; Tag-cleaved form as told in the purification methods; the His-detected form of the pull-down is m16; not shown: His6, N-terminal, cleaved
For B2, the binding result in data set [2] is recorded as “binds”.

B3: MVt-R975W (residues 879–1134) (domain or fragment, human, UniProt P18206 879-1134, looked up)
chain: EEKDEEFPEQKAGEVINQPMMMAARQLHDEARKWSSKPGIPAAEVGIGVVAEADAADAAGFPVPPDMEDDYEPELLLMPSNQPVNQPILAAAQSLHWEATKWSSKGNDIIAAAKRMALLMAEMSRLVRGGSGTKRALIQCAKDIAKASDEVTRLAKEVAKQCTDKRIRTNLLQVCERIPTISTQLKILSTVKATMLGRTNISDEESEQATEMLVHNAQNLMQSVKETVREAEAASIKIRTDAGFTLRWVRKTPWYQ
notes: human metavinculin tail domain, residues 879-1,134, with the cardiomyopathy-associated mutation Arg975Trp; also called MVt-Arg975Trp; not shown: His6, N-terminal, cleaved
For B3, the binding result in data set [2] is “binds”.

B4: MVt-ΔH1 (residues 959–1,130) as detected by His-tag Western blot in the GST-Vt pull-down (domain or fragment, human, UniProt P18206 959-1130, looked up)
chain: NQPVNQPILAAAQSLHREATKWSSKGNDIIAAAKRMALLMAEMSRLVRGGSGTKRALIQCAKDIAKASDEVTRLAKEVAKQCTDKRIRTNLLQVCERIPTISTQLKILSTVKATMLGRTNISDEESEQATEMLVHNAQNLMQSVKETVREAEAASIKIRTDAGFTLRWVRKT
notes: human metavinculin (1,134 residues), residues 959-1,130; Same construct as m3; source: E. coli, auto-induction media, purified; not shown: His8, N-terminal, kept
In the case of B4, in data set [3], the binding result is on record as “binds”.

B5: MVt-ΔH1 (residues 959–1,130) (domain or fragment, human, UniProt P18206 959-1130, looked up)
chain: NQPVNQPILAAAQSLHREATKWSSKGNDIIAAAKRMALLMAEMSRLVRGGSGTKRALIQCAKDIAKASDEVTRLAKEVAKQCTDKRIRTNLLQVCERIPTISTQLKILSTVKATMLGRTNISDEESEQATEMLVHNAQNLMQSVKETVREAEAASIKIRTDAGFTLRWVRKT
notes: human metavinculin (1,134 residues), residues 959-1,130 (five-helix bundle H1′, H2-H5); The His-detected form of the pull-down is m17; also called MVt five-helix bundle (α-helices H1′, H2–H5); not shown: His8, N-terminal, cleaved
Turning to B5, the binding result in data set [2] is on record as “binds”.

B6: metavinculin-ΔH1′ (lacking residues 963–983) (natural protein, human, UniProt P18206 1-1134, looked up)
chain: MPVFHTRTIESILEPVAQQISHLVIMHEEGEVDGKAIPDLTAPVAAVQAAVSNLVRVGKETVQTTEDQILKRDMPPAFIKVENACTKLVQAAQMLQSDPYSVPARDYLIDGSRGILSGTSDLLLTFDEAEVRKIIRVCKGILEYLTVAEVVETMEDLVTYTKNLGPGMTKMAKMIDERQQELTHQEHRVMLVNSMNTVKELLPVLISAMKIFVTTKNSKNQGIEEALKNRNFTVEKMSAEINEIIRVLQLTSWDEDAWASKDTEAMKRALASIDSKLNQAKGWLRDPSASPGDAGEQAIRQILDEAGKVGELCAGKERREILGTCKMLGQMTDQVADLRARGQGSSPVAMQKAQQVSQGLDVLTAKVENAARKLEAMTNSKQSIAKKIDAAQNWLADPNGGPEGEEQIRGALAEARKIAELCDDPKERDDILRSLGEISALTSKLADLRRQGKGDSPEARALAKQVATALQNLQTKTNRAVANSRPAKAAVHLEGKIEQAQRWIDNPTVDDRGVGQAAIRGLVAEGHRLANVMMGPYRQDLLAKCDRVDQLTAQLADLAARGEGESPQARALASQLQDSLKDLKARMQEAMTQEVSDVFSDTTTPIKLLAVAATAPPDAPNREEVFDERAANFENHSGKLGATAEKAAAVGTANKSTVEGIQASVKTARELTPQVVSAARILLRNPGNQAAYEHFETMKNQWIDNVEKMTGLVDEAIDTKSLLDASEEAIKKDLDKCKVAMANIQPQMLVAGATSIARRANRILLVAKREVENSEDPKFREAVKAASDELSKTISPMVMDAKAVAGNISDPGLQKSFLDSGYRILGAVAKVREAFQPQEPDFPPPPPDLEQLRLTDELAPPKPPLPEGEVPPPRPPPPEEKDEEFPEQKAGEVINQPMMMAARQLHDEARKWSSKPGIPAAEVGIGVVAEADAADAAGFPVPPDMEDDYEPELLLMPSNQPVGNDIIAAAKRMALLMAEMSRLVRGGSGTKRALIQCAKDIAKASDEVTRLAKEVAKQCTDKRIRTNLLQVCERIPTISTQLKILSTVKATMLGRTNISDEESEQATEMLVHNAQNLMQSVKETVREAEAASIKIRTDAGFTLRWVRKTPWYQ
notes: human metavinculin, full length (1-1,134) lacking residues 963-983 (α-helix H1′): 1-962 joined to 984-1,134; also called MV-ΔH1′; source: E. coli BL21-DE3, purified (as full-length metavinculin); not shown: His8, N-terminal, kept
For B6, the “stoichiometry N” value in data set [1] worked out at 2.
